This passage reports Kd results from article PMC12607895 (2025).

First the molecules themselves.
B5: CD46 (receptor)
chain: CEEPPTFEAMELIGKPKPYYEIGERVDYKCKKGYFYIPPLATHTICDRNHTWLPVSDDACYRETCPYIRDPLNGQAVPANGTYEFGYQMHFICNEGYYLIGEEILYCELKGSVAIWSGKPPICEKVLCTPPPKIKNGKHTFSEVEVFEYLDAVTYSCDPAPGPDPFSLIGESTIYCGDNSVWSRAAPECKVVKCRFPVVENGKQISGFGKKFYYKATVMFECDKGFYLDGSDTIVCDSNSTWDPPVPKCLKVLPPSSTKPPALSHSVSTSSTTKSPASSASGPRPTYKPPVSNYPGYPKPEEGILDSLD

Among the targets are HAdV-D56 fiber knob (human adenovirus D56 (HAdV-D56)); HAdV-D37 hexon (human adenovirus D37 (HAdV-D37)); HAdV-D113 hexon (human adenovirus D113 (HAdV-D113)); HAdV-D113 fiber knob (human adenovirus D113 (HAdV-D113)); HAdV-B11 hexon (human adenovirus B11 (HAdV-B11)).
Common to all, as to test: SPR
For orientation: Surface plasmon resonance follows binding to a sensor surface in real time, without labels.

In the assay “CD46” the target is B5.

B1: HAdV-D37 fiber knob (domain or fragment)
chain: WNPKYDTRTLWTTPDTSPNCTIAQDKDSKLTLVLTKCGSQILANVSLIVVAGKYHIINNKTNPKIKSFTIKLLFNKNGVLLDNSNLGKAYWNFRSGNSNVSTAYEKAIGFMPNLVAYPKPSNSKKYARDIVYGTIYLGGKPDQPAVIKTTFNQETGCEYSITFNFSWSKTYENVEFETTSFTFSYIAQE
modifications: Source, isoform and limits not given; soluble extracellular domain assumed; N/O-glycosylated; amine-coupled to CM5 chip
In general, Kd refers to the constant that tells how readily two partners part at equilibrium. In the case of B1, the equilibrium dissociation constant (Kd) with CD46 turned out to be 2700 nM.

B2: HAdV-D26 hexon (natural protein)
chain: ATPSMMPQWAYMHIAGQDASEYLSPGLVQFARATDTYFSLGNKFRNPTVAPTHDVTTDRSQRLTLRFVPVDREDTTYSYKARFTLAVGDNRVLDMASTYFDIRGVLDRGPSFKPYSGTAYNSLAPKGAPNPSQWETKEKQGTTGGVQQEKDVTKTFGVAATGGINITNQGLLLGTDETAENGKKDIYADKTFQPEPQVGEENWQENEAFYGGRALKKDTKMKPCYGSFARPTNEKGGQAKFKPVNEGEQPKDLDIDFAYFDVPGGSPPAGGSGEEYKADIILYTENVNLETPDTHVVYKPGTSDNSSEINLVQQSMPNRPNYIGFRDNFVGLMYYNSTGNMGVLAGQASQLNAVVDLQDRNTELSYQLLLDSLGDRTRYFSMWNSAVDSYDPDVRIIENHGVEDELPNYCFPLNGTGTNSTYQGVKITNGNDGAEESEWEKDDAISRQNQICKGNVYAMEINLQANLWKSFLYSNVALYLPDSYKYTPANVKLPANTNTYEYMNGRVVAPSLVDAYINIGARWSLDPMDNVNPFNHHRNAGLRYRSMLLGNGRYVPFHIQVPQKFFAIKNLLLLPGSYTYEWNFRKDVNMILQSSLGNDLRVDGASVRFDSVNLYATFFPMAHNTASTLEAMLRNDTNDQSFNDYLSAANMLYPIPAKATNVPISIPSRNWAAFRGWSFTRLKTKETPSLGSGFDPYFVYSGSIPYLDGTFYLNHTFKKVSIMFDSSVSWPGNDRLLTPNEFEIKRSVDGEGYNVAQCNMTKDWFLVQMLSHYNIGYQGFHVPEGYKDRMYSFFRNFQPMSRQVVDEINYKDYKAVTLPFQHNNSGFTGYLAPTMRQGQPYPANFPYPLIGQTAVPSVTQKKFLCDRVMWRIPFSSNFMSMGALTDLGQNMLYANSAHALDMTFEVDPMDEPTLLYLLFEVFDVVRVHQPHRGVIEAVYLRTPFSAGNATT
modifications: Source, isoform and limits not given; soluble extracellular domain assumed; N/O-glycosylated; amine-coupled to CM5 chip
Turning to B2, binding in the assay with CD46 was put at a Kd of 4240 nM.

B3: HAdV-D56 hexon (natural protein)
chain: ATPSMMPQWAYMHIAGQDASEYLSPGLVQFARATDTYFSLGNKFRNPTVAPTHDVTTDRSQRLTLRFVPVDREDTTYSYKARFTLAVGDNRVLDMASTYFDIRGVLDRGPSFKPYSGTAYNSLAPKGAPNSSQWEQKKANAGEQKETHTYGVAPMGGENITISGLQIGTDTTNGKQDPIYANKLYQPEPQVGEENWQETEAFYGGRALKKETKMKPCYGSFARPTNEKGGQAKLRDPEKSQEDFDIDLAFFDTPGGTLTGGGTEYKADIVMCTENVNLETPDTHVVYKPGKDDDSSEINLVQQSMPNRPNYIGFRDNFVGLMYYNSTGNMGVLAGQASQLNAVVDLQDRNTELSYQLLLDSLGDRTRYFSMWNSAVDSYDPDVRIIENHGVEDELPNYCFPLDGSGTNAAYEGVKVKNGQDGDQESEWEKDTNVADRNQICKGNIYAMEINLQANLWKSFLYSNVALYLPDSYKYTPANVTLPTNTNTYEYMNGRVVAPSLVDAYINIGARWSLDPMDNVNPFNHHRNAGLRYRSMLLGNGRYVPFHIQVPQKFFAIKNLLLLPGSYTYEWNFRKDVNMILQSSLGNDLRVDGASVRFDSVNLYATFFPMAHNTASTLEAMLRNDTNDQSFNDYLSAANMLYPIPAKATNVPISIPSRNWAAFRGWSFTRLKTKETPSLGSGFDPYFVYSGSIPYLDGTFYLNHTFKKVSIMFDSSVSWPGNDRLLTPNEFEIKRSVDGEGYNVAQCNMTKDWFLVQMLSHYNIGYQGFHVPEGYKDRMYSFFRNFQPMSRQVVDEINYKDYKAVTLPFQHNNSGFTGYLAPTMRQGQPYPANFPYPLIGQTAVPSVTQKKFLCDRVMWRIPFSSNFMSMGALTDLGQNMLYANSAHALDMTFEVDPMDEPTLLYLLFEVFDVVRVHQPHRGVIEAVYLRTPFSAGNATT
modifications: Source, isoform and limits not given; soluble extracellular domain assumed; N/O-glycosylated; amine-coupled to CM5 chip
With B3, the affinity in the assay with CD46, expressed as Kd, was 6730 nM.

B4: HAdV-C5 fiber knob (domain or fragment)
chain: TGAITVGNKNNDKLTLWTTPAPSPNCRLNAEKDAKLTLVLTKCGSQILATVSVLAVKGSLAPISGTVQSAHLIIRFDENGVLLNNSFLDPEYWNFRNGDLTEGTAYTNAVGFMPNLSAYPKSHGKTAKSNIVSQVYLNGDKTKPVTLTITLNGTQETGDTTPSAYSMSFSWDWSGHNYINEIFATSSYTFSYIAQE
modifications: trimer; limits by convention of the Ad5 knob structure 1KNB Source, isoform and limits not given; soluble extracellular domain assumed; N/O-glycosylated; amine-coupled to CM5 chip
As to B4, the Kd with CD46 worked out at 130 nM.
With B5, the Kd with HAdV-D56 fiber knob came out at 150 nM; in the assay with HAdV-D37 hexon, 3090 nM.

B6: HAdV-B11 fiber knob (domain or fragment)
chain: GLTFNSNNICIDDNINTLWTGVNPTEANCQIMNSSESNDCKLILTLVKTGALVTAFVYVIGVSNNFNMLTTHRNINFTAELFFDSTGNLLTRLSSLKTPLNHKSGQNMATGAITNAKGFMPSTTAYPFNDNSREKENYIYGTCYYTASDRTAFPIDISVMLNRRAINDETSYCIRITWSWNTGDAPEVQTSATTLVTSPFTFYYIREDD
modifications: trimer; knob limits by convention (last shaft residues to C-terminus) Source, isoform and limits not given; soluble extracellular domain assumed; N/O-glycosylated; amine-coupled to CM5 chip
With B6, the Kd with CD46 is 1.14 nM. This counts as single-digit nanomolar.

B7: CD46 (receptor)
chain: CEEPPTFEAMELIGKPKPYYEIGERVDYKCKKGYFYIPPLATHTICDRNHTWLPVSDDACYRETCPYIRDPLNGQAVPANGTYEFGYQMHFICNEGYYLIGEEILYCELKGSVAIWSGKPPICEKVLCTPPPKIKNGKHTFSEVEVFEYLDAVTYSCDPAPGPDPFSLIGESTIYCGDNSVWSRAAPECKVVKCRFPVVENGKQISGFGKKFYYKATVMFECDKGFYLDGSDTIVCDSNSTWDPPVPKCLKVLPPSSTKPPALSHSVSTSSTTKSPASSASGPRPTYKPPVSNYPGYPKPEEGILDSLDVWVIAVIVIAIVVGVAVICVVPYRYLQRRKKKGTYLTDETHREVKFTSL
Turning to B7, the Kd was found to be 4190 nM in the assay with HAdV-D113 hexon, 130 nM in the assay with HAdV-D113 fiber knob and 210 nM in the assay with HAdV-B11 hexon.
